Assay results from patent US20170023548.

T1: hATP11C-GFP (human ATP11C tagged with GFP at the C-terminus), Q8NB49
T1 chain: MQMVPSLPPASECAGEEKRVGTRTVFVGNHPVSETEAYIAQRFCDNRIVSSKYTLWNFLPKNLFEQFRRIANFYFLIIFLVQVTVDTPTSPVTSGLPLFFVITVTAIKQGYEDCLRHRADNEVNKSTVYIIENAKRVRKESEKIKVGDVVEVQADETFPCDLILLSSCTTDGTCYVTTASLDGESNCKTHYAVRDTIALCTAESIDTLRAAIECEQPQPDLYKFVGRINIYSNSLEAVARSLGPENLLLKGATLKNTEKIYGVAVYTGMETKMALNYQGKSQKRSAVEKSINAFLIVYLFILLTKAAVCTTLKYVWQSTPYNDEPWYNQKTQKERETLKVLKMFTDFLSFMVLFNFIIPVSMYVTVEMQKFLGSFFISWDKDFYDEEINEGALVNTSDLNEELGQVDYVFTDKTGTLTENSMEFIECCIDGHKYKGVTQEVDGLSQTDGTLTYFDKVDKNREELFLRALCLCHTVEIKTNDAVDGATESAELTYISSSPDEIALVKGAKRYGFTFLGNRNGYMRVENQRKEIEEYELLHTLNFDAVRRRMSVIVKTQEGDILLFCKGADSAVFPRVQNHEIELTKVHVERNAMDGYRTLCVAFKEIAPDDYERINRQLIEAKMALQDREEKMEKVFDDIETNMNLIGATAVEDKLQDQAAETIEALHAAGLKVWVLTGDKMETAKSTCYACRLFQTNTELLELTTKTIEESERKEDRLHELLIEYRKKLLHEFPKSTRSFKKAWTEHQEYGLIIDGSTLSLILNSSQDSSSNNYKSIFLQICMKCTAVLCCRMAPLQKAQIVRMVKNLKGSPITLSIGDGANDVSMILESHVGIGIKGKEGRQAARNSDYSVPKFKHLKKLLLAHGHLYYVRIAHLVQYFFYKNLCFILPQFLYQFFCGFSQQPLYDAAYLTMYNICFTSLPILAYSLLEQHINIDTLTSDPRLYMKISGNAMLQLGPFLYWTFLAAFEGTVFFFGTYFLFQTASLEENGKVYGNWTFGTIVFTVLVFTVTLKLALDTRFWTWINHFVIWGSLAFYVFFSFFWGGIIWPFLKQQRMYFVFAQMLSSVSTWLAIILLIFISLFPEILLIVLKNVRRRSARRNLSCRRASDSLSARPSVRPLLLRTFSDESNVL


Target: T1, hATP11C-GFP (human ATP11C tagged with …)

Row | Protein | cleavage of hATP11C-GFP in solubilized membrane fraction, Western blotting with anti-GFP
1 | recombinant human caspase-3 (Biovision) (protein) SGISLDNSYKMDYPEMGLCIIINNKNFHKSTGMTSRSGTDVDAANLRETFRNLKYEVRNKNDLTREEIVELMRDVSKEDHSKRSSFVCVLLSHGEEGIIFGTNGPVDLKKITNFFRGDRCRSLTGKPKLFIIQACRGTELDCGIETDSGVDDDMACHKIPVEADFLYAYSTAPGYYSWRNSKDGSWFIQSLCAMLKQYADKLEFMHILTRVNRKVATEFESFSFDATFHAKKQIPCIVSMLTKELYFYH | hATP11C was cleaved by caspase-3, -6 and -7
2 | recombinant human caspase-6 (Biovision) (protein) AFYKREMFDPAEKYKMDHRRRGIALIFNHERFFWHLTLPERRGTCADRDNLTRRFSDLGFEVKCFNDLKAEELLLKIHEVSTVSHADADCFVCVFLSHGEGNHIYAYDAKIEIQTLTGLFKGDKCHSLVGKPKIFIIQACRGNQHDVPVIPLDVVDNQTEKLDTNITEVDAASVYTLPAGADFLMCYSVAEGYYSHRETVNGSWYIQDLCEMLGKYGSSLEFTELLTLVNRKVSQRRVDFCKDPSAIGKKQVPCFASMLTKKLHFFPKSN | hATP11C was cleaved by caspase-3, -6 and -7
3 | recombinant human caspase-7 (Biovision) (protein) AKPDRSSFVPSLFSKKKKNVTMRSIKTTRDRVPTYQYNMNFEKLGKCIIINNKNFDKVTGMGVRNGTDKDAEALFKCFRSLGFDVIVYNDCSCAKMQDLLKKASEEDHTNAACFACILLSHGEENVIYGKDGVTPIKDLTAHFRGDRCKTLLEKPKLFFIQACRGTELDDGIQADSGPINDTDANPRYKIPVEADFLFAYSTVPGYYSWRSPGRGSWFVQALCSILEEHGKDLEIMQILTRVNDRVARHFESQSDDPHFHEKKQIPCVVSMLTKELYFSQ | hATP11C was cleaved by caspase-3, -6 and -7
